# Results taken from the nanobody polyreactivity screen of Harvey et al. (2022).
# Assay: yeast display, Sf9 membrane polyspecificity reagent, FACS + sequencing; frameworks hold sequencing errors
# Procedure, shortened: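 Sorting gates, low and high (top ~1%), were placed on anti-HA fluorescence to track expression and on streptavidin fluorescence to track reagent binding. A clone's polyreactivity label is taken from the gate it came out of. The reagent was 10% biotinylated, detergent-solubilized Sf9 membrane, applied for 1 hour at 4 °C to galactose-induced yeast display cells.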
sequence,measurement,value
QVQLVESGGGLVQAGGSLSLSCPASGFTFPPYTMGWSRQAPGKEREFVATITKSGGSTYYADSVKGRFTISRDNAKNTVYLQMNSLKPEDTAVYYCNVVWQYSTYVRYNYWGQGTQVTVSS,polyreactivity (PSR sort gate),low polyreactivity
QVQLVESGGGLVQAGGSLSLSSSASGRTFKGNAMGWYIQAPGKERELVAVITGSGGSTYYADSVKGRFTISRDNAKNTVYLQMNSLKPEDTAVYYCNKKLQRRSWYDYWGQGTQVTVSS,polyreactivity (PSR sort gate),low polyreactivity
QVQLVESGGGLVQAGGSNRLSCAASGLTSFRYTMGWYRQAPGKDRELVAGISGSRGRTYYADSVKGRFTISRDNAKNTVYLQMNCMKAVDTAVYDCAAGWYTSHAKGKGGYWGQGTQVTVSS,polyreactivity (PSR sort gate),high polyreactivity
QVQLVESGGGLVQAGGSNRLSCAASGYIFDIYAMGCYRQAPVKERELVAVITRSGGGTYYADSVKGRFTISRDNAKNSVYLQMNSLKPEDTAVYYCAAESYVYGGSDYDYWGQGTQVTVSS,polyreactivity (PSR sort gate),low polyreactivity
QVQLVESGGGLVQAGGSRLSCAASGLIFIWYTMGWYRQAPGKERELVAAIDSSGGNTYYADSVKGRFTISRDNAKNTVYLQMNSLKPEDTAVYYCAKDVGHGAGNLMGYWGQGTQVTVSS,polyreactivity (PSR sort gate),low polyreactivity
QVQLVESGGGLVQAGGSRRLSCAASGCILRDNAMGWYRQAPGKEREVVAAISYSGDLTYYADSVKGRFTISRDNAKNTVYLQMNSLIPEDTAVYDCAALYPKVRGYRSDDLWGQGTQVTVSS,polyreactivity (PSR sort gate),high polyreactivity
QVQLVESGGGLVQAGGSRRLSCAASGFFFRTYSMGWYRQAPGTERELVAAISSSSGSTYYADSVKGRFTISRDNAKNTVYLQMNSLKPEDTAVYYCAAYSLSQKPRGYNYWGQGTQVTVSS,polyreactivity (PSR sort gate),high polyreactivity
QVQLVESGGGLVQAGGSRRLSCAASGGIFNYYTMGWYRQATGKERELVAAINSSGGNTHYADSVKGRFTISRDNAKNTVYLQMYSLKPEDTAVYYCNADARSVWFYRVDYWGQGTQVTVSS,polyreactivity (PSR sort gate),low polyreactivity
QVQLVESGGGLVQAGGSRRLSCAASGNIFPQNGMGWYRQAPAKERELVAAITRGGSTYYADSVKGRFTISRDNAKNTVYVQMHSLKPEDTAVYDCAAVRPQYRRRTKANPYNYWGQGTQVTVSS,polyreactivity (PSR sort gate),high polyreactivity
QVQLVESGGGLVQAGGSRRLSCAASGNTIYFYVMGWYRQAPGKERELVAAISSSGGSTYYADSVKGRFTISRDNAKNTVYLQMNSLKPEDTSVYYCAAEMYLSRLRYWYDYWGQGTQVTVSS,polyreactivity (PSR sort gate),high polyreactivity
QVQLVESGGGLVQAGGSRRLSCAASGRTFDSYTMGWYRQAPGKERELVADITFTGGSTYYADSVKGRFTISRDNAKNTVYLQMNSLKPDDTAVYYCNADREYKWYFRYDYWGQGTQVTVSS,polyreactivity (PSR sort gate),low polyreactivity
QVQLVESGGGLVQAGGSRRLSCAASGSIFATYAIGWYRQAPGKERELVAAISWSGGRTYYADSVKGRFTISRDNAKNTVYLEMNSLKPEDTAVYYCNAVTLLGTRGYGYWGQGTQVTVSS,polyreactivity (PSR sort gate),high polyreactivity
QVQLVESGGGLVQAGGSRRLSCAASGSTFSDYAMGWYRQAPGKERELVAAISSSGGRTYYADSVKGRFTISRDNAKNTVYLQMNSLNPEDTAVYYCNARGYARGVSTGYDFWGQGTQVTVSS,polyreactivity (PSR sort gate),high polyreactivity
QVQLVESGGGLVQAGGSRRLSCAASGSTFYGYAMGWYRHAPGKEREFVAAITTSGGSTYYADSVKGRFTISRDNAKNTVYLQMNSLKPEDTAVYYCAADGFYYDDGYWGQGTQVTVSS,polyreactivity (PSR sort gate),low polyreactivity
QVQLVESGGGLVQAGGSRRLSCAASGYSLRIYAMGWYRQAPGTEMELVAAISRSGGRTFYADSVKGRFTISRDNAKNTVFLQMNSLKQEDTAVYYCAADPRCYDTGRMDYWGQGTQVTVSS,polyreactivity (PSR sort gate),high polyreactivity
QVQLVESGGGLVQAGGSRRLSSAASGIILDHNAMGWYRQAPGKERELVAAISSGTRTNYADSVKGRFTISRDNAKNTVYLQMNSLKPEDTAVYYCAATIYRRYPSKSSITSYWGQGTQVTVSS,polyreactivity (PSR sort gate),high polyreactivity
QVQLVESGGGLVQAGGSVRLSCAASGRIFGWYAMGCYRPAPGKERELVAAIPWSGDSTYYADSVKGRFTISRDNAKNTVYLQMNSLKPEDTAVYYCNKVRGYPRVAGYYSWGQGTQVTVSS,polyreactivity (PSR sort gate),low polyreactivity
QVQLVESGGGLVQAGGSVRLSCAASGSTFLYNAMGWYRQAPGKEREVVAGIRRSGGSTYYADSVKGRFTISRANAKNTVYLQMNSLKPEDTAVYYCAVVPAMYRYRVVTYAYDYWGQGTQVNVSS,polyreactivity (PSR sort gate),low polyreactivity
QVQLVESGGGLVQAGGSVRLSCGASGRSFQRYALGWYRQAPGTERELVAAIRWSGGATYGDSVKGRFTISRDNAKNTVYLQMNSLQPEDTAVYYCAAVDRRDPYYPKYNYWGQGTQVTVSS,polyreactivity (PSR sort gate),high polyreactivity
QVQLVESGGGLVQAGGSVRLSCGASGSIFLGNSMGWYRQAPGTLRELVAAISSITGSTYYADSVKGRFSISRDIAKNTVYLQMNRLKQEETGVYYCARVPDTEGEYWGQGTQVTVSS,polyreactivity (PSR sort gate),high polyreactivity
QVQLVESGGGLVQAGGTLRISCAASGRIYAGYVMGWYRQAPRKERELVAAISGSGAYTYYADSVKGRFTISRDYAKNTVYLQMNRLKPEDSAVYYCAADKPGIFSRFDYWGQGTQVSVSS,polyreactivity (PSR sort gate),low polyreactivity
QVQLVESGGGLVQAGGTLRISCAASGSTFLFYAMGWYRQAPGKERELVAAISSSGTSTYYADSVKGRFTISRDNAKNTVYLQMNSLKPEDTACYYCARRGRSLRWKYDYWGQGTQVTVSS,polyreactivity (PSR sort gate),low polyreactivity
QVQLVESGGGLVQAGGTLRLSCAASGFTFLDYAMGWYRQAPGKERELVATINWSDVSTYYADSVKGRFTISRDTAKNTVYLQINSLKPEDTAVYYSAVDVLTVGQSNDHWGQGTQVTVSS,polyreactivity (PSR sort gate),high polyreactivity
QVQLVESGGGLVQAGGTLRLSCAASGFTFRYYAMGWYRQAPGKERELVAAISRGGTTNYADSVKGRFTISRDNAKNTVYLQMNSLKPEDTAVYYCAARQYYSRVTYDYWGQGTQVTVSS,polyreactivity (PSR sort gate),high polyreactivity
QVQLVESGGGLVQAGGTLRLSCAASGIILSRYAMGWYIQAPGKERELVAAITRTTSTSYADSVKGRFTISRDNAKNTFYLQMNILKTEDTEVYYCAAVHYGGTAYYYWGQGTQVNVSS,polyreactivity (PSR sort gate),high polyreactivity
QVQLVESGGGLVQAGGTLRLSCAASGITFKRYAMGWYRLAPGKERELVATISRSGGSPYADSVKGRFTISRDNAMNTVYLQMNSLKPEDSAVYYCNAVSQSSEYDYWGEGTQVTVSS,polyreactivity (PSR sort gate),high polyreactivity
QVQLVESGGGLVQAGGTLRLSCAASGITFSDYTMGWYRQAPGKERELVDAISTSGGSTYYADSVKGRFTISRDNAKNTVYLQMNSQKPEDTAVYYCAAISAVTLRGYYYWGQRTQVTVSS,polyreactivity (PSR sort gate),high polyreactivity
QVQLVESGGGLVQAGGTLRLSCAASGLTFYRYAMGWYRQAPGKERELVATIRSGDGTYYADSVKGRFTISRDNAKNTVYLQMNSLKPEDTAVYYCAAKKVYRVYGRYEYWGQGTQVTVSS,polyreactivity (PSR sort gate),high polyreactivity
QVQLVESGGGLVQAGGTLRLSCAASGRIFGVYAMGWSRQAPGKERELVAAIRWSGGSTYYADSVKGRFTISRDNAKTTVYLQMNSLKPEDTAVYYCAAVGGVTRGNQYVRYGYWGQGTQVTVSS,polyreactivity (PSR sort gate),high polyreactivity
QVQLVESGGGLVQAGGTLRLSCAASGRIFGYNDMGWYRQAPGKERELVAAINRTGGSTYYADSVKGRFTISRDNAKNTVYLQMNSLKPEDTAVYYCNADARTKWVQTHTDFITDYDYWGQGTQVTVSS,polyreactivity (PSR sort gate),low polyreactivity
QVQLVESGGGLVQAGGTLRLSCAASGRIFVYYTMGWYRQAPGKERELVAAITCSGGSTYYADTVKGRFTISRDNEKNPVYLQMNSLKPEDTAVYYCAADGYADYYGWGYWTEYDYWGQGTQVTVSS,polyreactivity (PSR sort gate),low polyreactivity
